Biological target: T1, vascular endothelial growth factor receptor 2 (UniProt P35968 20-764)
T1 construct: VEGFR2 (vascular endothelial growth factor receptor 2); probably a bought recombinant protein (surmise); also called VEGFR2; VEGFR-2
Experiment: SPR; Biacore S200; ASP-3 immobilised on a CM5 chip (NHS/EDC activation); VEGFR2 at 100, 50, 25, 12.5, 6.25 and 3.125 nM flowed over for 180 s at 10 μL/min; running buffer HBS-EP+; reference channel subtracted
Settings: both partners purified

T1 sequence (P35968 20-764): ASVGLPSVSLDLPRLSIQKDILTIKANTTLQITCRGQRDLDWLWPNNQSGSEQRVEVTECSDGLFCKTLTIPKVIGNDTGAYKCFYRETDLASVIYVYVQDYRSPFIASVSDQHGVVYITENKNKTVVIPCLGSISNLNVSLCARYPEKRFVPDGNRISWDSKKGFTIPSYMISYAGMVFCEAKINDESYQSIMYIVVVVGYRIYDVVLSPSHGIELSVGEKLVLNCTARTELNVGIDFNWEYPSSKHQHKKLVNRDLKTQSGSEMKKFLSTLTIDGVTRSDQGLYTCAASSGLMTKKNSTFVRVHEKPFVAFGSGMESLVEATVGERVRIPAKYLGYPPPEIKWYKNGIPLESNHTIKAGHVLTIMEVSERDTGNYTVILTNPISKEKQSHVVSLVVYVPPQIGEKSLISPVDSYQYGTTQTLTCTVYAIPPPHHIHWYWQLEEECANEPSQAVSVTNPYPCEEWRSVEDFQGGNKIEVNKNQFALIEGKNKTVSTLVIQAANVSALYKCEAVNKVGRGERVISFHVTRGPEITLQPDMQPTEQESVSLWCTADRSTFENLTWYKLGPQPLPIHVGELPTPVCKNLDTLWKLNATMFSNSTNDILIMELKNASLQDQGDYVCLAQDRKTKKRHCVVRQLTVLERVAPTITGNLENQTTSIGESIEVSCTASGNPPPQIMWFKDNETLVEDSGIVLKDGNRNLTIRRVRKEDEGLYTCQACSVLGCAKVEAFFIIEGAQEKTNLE

Kd: 39.9 nM
B1: ASP-3 (natural protein, Arca subcrenata)
chain: MDYLTSKWKLWFHSLDVNHDGKISFEDVEESRNKFTDLHKLLGDKASGVKVDMESWWNTYIFKASGGGELSEEMFIKSNTDRYNKDKAAFLNDIQKCFNMIFDVIDTNKDRSIELNEFIYAFKAFGHENEGLVTKAFELLEPKEGLVPLRDIVNAWVSFVTSTDQSKPDAIKQAFDAGF
notes: ASP-3, Arca subcrenata Lischke, 179 amino acids, 20.6 kDa; Native protein isolated from the animal; also called Arca subcrenata protein; cds.c115914_g1_i1
